The chains are these.
B1: CPEB3 Ribozyme (parent)
chain: GGGGGCCACAGCAGAAGCGUUCACGUCGCGGCCCCUGUCAGAUUCUGGUGAAUCUGCGAAUUCUGCUGU

Variants of B1 are the subject of this data set. As to the kind of experiment: self-cleavage, relative activity (ratio to wild type); higher = more cleavage; co-transcriptional.
For the variant A23G C54U, the self-cleavage came out at 0.964.

Consider A23G C54G, for which the self-cleavage was 0.919.

For A23G C54A, the self-cleavage was determined as 0.712.

As for C24A G31U, the self-cleavage was determined as 0.257.

In the case of C24A G31C, the self-cleavage came to 0.132.

On to C24A U38G, for which the self-cleavage is 0.196.

As to C24A U38A, the self-cleavage came to 0.393.

In the case of C24A U38C, the self-cleavage amounted to 0.517.

Turning to A23U C39G, the self-cleavage was determined as 1.02.

With A23U C39U, the self-cleavage came to 0.921.

Regarding A23U C39A, the self-cleavage amounted to 0.87.

As to A23C G48C, the self-cleavage came out at 0.924.

Regarding A23U U62A, the self-cleavage was 0.635.

Regarding C24A, the self-cleavage is 0.77.

Take A23U C54A: the self-cleavage turned out to be 0.901.

For A23U C54U, the self-cleavage amounted to 1.02.

A23U C54G: the self-cleavage is 0.943.

Take A23G A52C: the self-cleavage turned out to be 0.935.

As for A23G A52G, the self-cleavage was 1.02.

Consider A23G A52U, for which the self-cleavage was determined as 0.933.

In the case of A23U G50A, the self-cleavage turned out to be 1.01.

For A23U G50C, the self-cleavage came to 0.978.

As for A23U G50U, the self-cleavage was 0.958.

Take A23G U46C: the self-cleavage was 0.906.

As for A23G C32A, the self-cleavage was 0.436.

With A23G C32U, the self-cleavage stood at 0.976.

As to A23G U62G, the self-cleavage came to 0.75.

As to A23G U62C, the self-cleavage stood at 0.667.

Take A23G U62A: the self-cleavage worked out at 0.948.

In the case of C24A G68U, the self-cleavage amounted to 0.834.

As to C24A G68A, the self-cleavage was found to be 0.87.

Turning to A23U U44C, the self-cleavage amounted to 0.869.

For A23U U44G, the self-cleavage came out at 0.882.

In the case of A23U U44A, the self-cleavage is 0.963.

For the variant A23C U26G, the self-cleavage was 0.749.

With A23C C63G, the self-cleavage stood at 0.573.

Turning to A23C C63A, the self-cleavage is 0.738.

On to A23U U49G, for which the self-cleavage is 0.936.

For A23U U49A, the self-cleavage turned out to be 1.03.

A23U U49C: the self-cleavage turned out to be 0.981.

Take A23G G58C: the self-cleavage is 0.97.

Take A23U G47A: the self-cleavage was determined as 1.02.

A23U G47U: the self-cleavage came to 0.983.

With A23U U61G, the self-cleavage was determined as 0.881.

Regarding A23U U61A, the self-cleavage was determined as 0.918.

On to A23G G56U, for which the self-cleavage amounted to 0.914.

On to A23G G56C, for which the self-cleavage was 0.751.

For the variant A23G U69C, the self-cleavage was determined as 1.06.

Take A23G U69G: the self-cleavage is 1.04.

Take A23G U69A: the self-cleavage worked out at 0.974.

For C24A G56A, the self-cleavage is 0.52.

As for C24A G56C, the self-cleavage came to 0.31.

On to C24A G56U, for which the self-cleavage was found to be 0.576.

For the variant A23C G30A, the self-cleavage turned out to be 0.743.

Regarding A23C G30C, the self-cleavage is 0.58.

Turning to C24A G50C, the self-cleavage stood at 0.665.

Regarding C24A G50A, the self-cleavage is 0.719.

On to A23G G41C, for which the self-cleavage is 0.581.

Consider A23G G41A, for which the self-cleavage was found to be 0.676.

Take A23G G41U: the self-cleavage was 0.798.

For C24A A52G, the self-cleavage came out at 0.772.

For the variant A23C G41U, the self-cleavage was 0.815.

For A23U G25C, the self-cleavage was found to be 0.185.

Regarding A23U G25U, the self-cleavage came out at 0.144.

Take A23U G25A: the self-cleavage was determined as 0.214.

For the variant A23G G68U, the self-cleavage was found to be 1.

Consider A23G G68C, for which the self-cleavage amounted to 0.971.

Consider A23G G68A, for which the self-cleavage came out at 0.97.

In the case of A23C U44C, the self-cleavage is 0.874.

Take C24A U44A: the self-cleavage was found to be 0.705.

Consider C24A U44G, for which the self-cleavage came out at 0.615.

C24A U44C: the self-cleavage was determined as 0.628.

For the variant C24A C32A, the self-cleavage came out at 0.31.

For C24A C32U, the self-cleavage came to 0.729.

For C24A G48A, the self-cleavage was determined as 0.758.

For C24A G48U, the self-cleavage was found to be 0.737.

For the variant C24A G48C, the self-cleavage worked out at 0.786.

On to C24A A60G, for which the self-cleavage turned out to be 0.35.

For C24A A60U, the self-cleavage turned out to be 0.252.

In the case of C24A A60C, the self-cleavage amounted to 0.283.

In the case of A23C G37A, the self-cleavage stood at 0.3.

For the variant A23C G37C, the self-cleavage amounted to 0.254.

Regarding A23U G56A, the self-cleavage stood at 1.01.

As for A23U G56C, the self-cleavage was found to be 0.936.

With A23U G56U, the self-cleavage worked out at 0.955.

With A23U A51C, the self-cleavage turned out to be 0.995.

As for A23U A51U, the self-cleavage came to 0.995.

As to A23G U26A, the self-cleavage came out at 0.773.

For A23G C27A, the self-cleavage was 0.303.

Regarding A23G C27U, the self-cleavage is 0.222.

As for C24A A42G, the self-cleavage stood at 0.53.

On to C24A C27A, for which the self-cleavage came out at 0.16.

On to C24A C27G, for which the self-cleavage was 0.105.

As to A23U U53C, the self-cleavage stood at 0.928.

For the variant A23U U53A, the self-cleavage is 0.903.

For the variant A23U U53G, the self-cleavage was 0.959.

In the case of A23U, the self-cleavage was found to be 1.

On to A23G, for which the self-cleavage was 0.984.

Take A23U U26G: the self-cleavage was 0.92.

For A23U U26C, the self-cleavage is 1.04.

As for A23U U26A, the self-cleavage came out at 0.914.

For A23U U69C, the self-cleavage amounted to 1.07.

On to A23U U69A, for which the self-cleavage worked out at 1.03.

As for A23C G58C, the self-cleavage worked out at 0.891.

With A23C U61G, the self-cleavage amounted to 0.855.

With A23C U61A, the self-cleavage stood at 0.832.

Take A23U C27A: the self-cleavage came to 0.734.

In the case of A23U C27G, the self-cleavage is 0.164.

Regarding A23U C27U, the self-cleavage came to 0.29.

For A23G U64A, the self-cleavage was found to be 0.753.

With C24A U43A, the self-cleavage amounted to 0.537.

C24A U43G: the self-cleavage is 0.427.

For A23U A40G, the self-cleavage turned out to be 0.951.

As to A23U A40U, the self-cleavage was 0.924.

Turning to A23U A40C, the self-cleavage stood at 0.678.

With A23G G50C, the self-cleavage is 1.01.

For the variant C24A U36A, the self-cleavage was 0.173.

With C24A U36G, the self-cleavage is 0.205.

For A23G G47A, the self-cleavage turned out to be 0.996.

For the variant A23G G47C, the self-cleavage was determined as 0.944.

Regarding A23G G47U, the self-cleavage is 0.991.

A23G C34U: the self-cleavage came out at 0.932.

In the case of A23G C34A, the self-cleavage worked out at 0.627.

For A23C U55C, the self-cleavage amounted to 0.891.

A23U C32G: the self-cleavage worked out at 0.71.

For the variant A23U C32U, the self-cleavage was 1.01.

With C24A C29G, the self-cleavage was found to be 0.166.

As to C24A C29A, the self-cleavage was found to be 0.27.

On to C24A C29U, for which the self-cleavage is 0.158.

For the variant A23G G37C, the self-cleavage worked out at 0.214.

As for A23G G37A, the self-cleavage is 0.254.

As to A23G G37U, the self-cleavage is 0.22.

Turning to C24A G37A, the self-cleavage is 0.229.

For C24A G37C, the self-cleavage turned out to be 0.264.

For the variant C24A G47A, the self-cleavage was determined as 0.771.

With C24A C39A, the self-cleavage amounted to 0.349.

Consider C24A C39G, for which the self-cleavage stood at 0.682.

Turning to C24A C39U, the self-cleavage was determined as 0.493.

Consider A23G U38G, for which the self-cleavage came out at 0.245.

Consider A23G U38A, for which the self-cleavage stood at 0.897.

Take A23G U38C: the self-cleavage worked out at 0.946.

As to A23U U43C, the self-cleavage worked out at 0.931.

For the variant A23U U43A, the self-cleavage was 0.954.

For the variant A23U U55C, the self-cleavage worked out at 0.953.

Regarding A23U U46A, the self-cleavage amounted to 0.955.

With A23U U46C, the self-cleavage stood at 0.964.

Turning to A23U U46G, the self-cleavage was 1.

As to A23C U64C, the self-cleavage is 0.912.

As for A23C U64G, the self-cleavage was determined as 0.878.

For A23G A51U, the self-cleavage is 1.

As for A23C G56A, the self-cleavage was 0.852.

With A23C G56C, the self-cleavage is 0.762.

For the variant A23C G31C, the self-cleavage was found to be 0.186.

On to A23C G31U, for which the self-cleavage came to 0.528.

As to A23C U43G, the self-cleavage was 0.82.

Regarding A23C U43A, the self-cleavage was 0.771.

In the case of C24A C33U, the self-cleavage amounted to 0.761.

Take C24A C33G: the self-cleavage came out at 0.33.

Turning to C24A C33A, the self-cleavage is 0.38.

A23G G31C: the self-cleavage was 0.237.

Turning to C24A C63A, the self-cleavage worked out at 0.357.

In the case of C24A C63U, the self-cleavage is 0.699.

Consider C24A G28C, for which the self-cleavage was determined as 0.129.

Take C24A G28U: the self-cleavage came to 0.127.

For the variant C24A G28A, the self-cleavage amounted to 0.187.

In the case of C24A C57U, the self-cleavage was found to be 0.248.

In the case of C24A C57G, the self-cleavage was determined as 0.219.

The values are drawn from the RNAGym collection of RNA variant scans (doi:10.7554/elife.80360).
